{"source": "patent US10900903B2", "about": "“Protein structure analysis based on red-edge excitation shift (REES) spectroscopy” (UNIVERSITY OF BATH, priority 2016, dated 2021)", "key": {"[1]": {"settings": "previously found; cited from earlier work"}, "[2]": {"assay": "High-pressure REES measurements", "assay_type": "physicochemical", "description": "The CSM value is rather larger than reported for the denaturation study above (FIGS. 3A and 3B) and this is due to a different spectral window used to calculate the CSM for the pressure studies. This was necessary due to the optical setup of the pressure cell. […] Fitting the REES data to Eq 4 gives the pressure dependence of A, shown in FIG. 4D as the change in the fraction of A across the pressure range. […] The pressure dependence data can be adequately fit to a simple, phenomenological model that implies a single transition between two states with changing hydrostatic pressure as used previously:\nWhere Rp=83.13 cm3 mol^−1 bar K^−1 when the pressure, p, is measured in bar, K0 is the equilibrium constant for the change in the relative population of the ith conformational state represented by the magnitude of A from Eq 4, extrapolated to 0 bar and ΔVA is the apparent difference in the volume associated with this equilibrium transition.\nThe difference in sign is simply attributable to relative change in direction of the specific to signal. What is important is that the magnitude of ΔV is much larger for the REES effect compared to W6 emission. Indeed, this magnitude of pressure dependence is more consistent with global metrics of NEMO conformational change previously measured using the pressure dependence of 8-anilino naphthalene sulfonate (ANS) emission. The REES signal may therefore be reflective of the broader equilibrium of NEMO conformational states at sites distal to W6. […] The key finding from the pressure data in the present context is that the REES effect itself is pressure-dependent with the magnitude of A increasing with pressure.\nAn ISS high-pressure cell (ISS, Champaign, UL, USA), fitted with a custom fiber optic mounting to the fluorimeter and connected to a circulating water bath for temperature regulation was used to record all high-pressure measurements.\nWhere fi is the measured fluorescence intensity and λem is the emission wavelength. The importance of using a consistent wavelength range when reporting CSM data is stressed, as the magnitude will be dependent on the wavelength range chosen."}, "[3]": {"settings": "pressure dependence of emission, ref [23]; cited from earlier work"}, "[4]": {"assay": "REES of NEMO W6 Trp emission: native, denatured, crowded", "assay_type": "physicochemical", "settings": "for R0: y-intercept of Eq 2 fit", "description": "Typically the magnitude of the steady-state REES phenomenon is reported as the simple difference in CSM or ΔλEm^max. From FIG. 1, it is observed that a significant red shift in the emission spectra, with an increase in CSM of 17.7 nm and an increase in ΔλEm^max of 15 nm from λex 292-310 nm. Essentially the data are treated by the linear function: CSM=Rλex+CSM0 Eq 1.\nWhere R is the REES magnitude expressed as the change in CSM per nm of the excitation wavelength, λex.\nThe REES data in FIG. 2 can be best represented by a Gaussian probability distribution of the form:\nWhere A is the area, w is the full width at half-maximal (fwhm), m is the mid-point and R0 is the y-intercept and m=λREES^max, where λREES^max is the excitation wavelength that gives the largest change in the emission peak wavelength. The data in FIG. 2 are fit to Eq 2 and illustrate the low energy excitation at the red edge of the protein absorption spectrum. The fit of Eq 2 to the experimental data is excellent and captures the expected relationship described above.\nIn this case, the solvent relaxation will be very rapid and no REES effect observed, effectively because there is one discrete solvation state (fully solvated). NEMO is incubated in 6M guanidine to denature the protein and the corresponding change in the center of spectral mass (CSM) versus λex is shown in FIG. 3. The use of CSM is favoured instead of the magnitude of ΔλEm^max as this metric gives a more robust REES signal and the magnitude of may be highly error prone. However the results using ΔλEm^max are essentially the same. A decrease and red-shift in Trp emission is typically grossly correlated with denaturation of proteins. […] Note that this is not the REES effect but reflective of the solvent exposure of NEMO W6 on denaturation. […] Fitting to Eq 2 also gives a large decrease in the REES effect, A=0.37±0.4. The relative change in the REES effect is similar using either approach and this indicates strongly that a fitting approach using Eq 2 is robust.\nMacromolecular crowding is a key feature of the intracellular milieu arising from the very high concentrations of other species in the cytosol. Crowding reduces the available solvent for other molecules in solution through the excluded volume effect, which effectively increase the concentration of, for example, protein and restricts the accessible conformational states through hard-core repulsions between the crowding agent and the protein. Macromolecular crowding can alter protein conformation, typically inducing folding and stabilization. Crowding therefore potentially provides a means to explore the contrasting physical effect of denaturation on the REES effect, where the protein is more folded/stabilized. A protein has been used as the crowding agent, Sbi (reported above), instead of a synthetic crowding agent since protein is much more consistent with the intracellular environment. […] Incubating NEMO with a high concentration of Sbi (20 mg/ml) gives a dramatic change to the both the absolute Trp emission and also the REES effect as shown in FIG. 3. […] Intriguingly, the REES effect is much larger in the crowded environment giving a relative increase in A of 2.24±0.51. […] This is consistent with the putative molecular model of NEMO activity that is based on allosterically regulated NEMO conformational change. Below, the potential mechanistic role of an increased number of available conformational states with respect to ligand interactions is described.\nFull length human NEMO was expressed and purified essentially as described previously. Purified protein was dialysed extensively into a buffer comprising 50 mM Tris-Cl pH 8.0, 50 mM NaCl and 5 mM DTT. All measurements were made in this buffer unless otherwise stated. IKK-β and IκBα peptides were commercially synthesised by Genscript, having a purity of >98% and are of the sequence […] and […], respectively. […]"}}, "note": "Several values for one entry are separate records, joined by “and”; a condition that tells them apart may be missing. Identical values can stand only once."}
{"substance": "NEMOnative: Full length human NF-κB essential modulator; W6 is its single intrinsic Trp residue", "values": [{"measurement": "random coil content", "setting": "[1]", "result": "~40", "unit": "%"}, {"measurement": "α-helical content", "setting": "[1]", "result": "~50", "unit": "%"}, {"measurement": "ΔλEm^max", "setting": "[2]; 10° C., 1 bar, λex=295 nm", "result": 348, "unit": "nm"}, {"measurement": "increase in W6 CSM with increasing pressure", "setting": "[2]; λex=292 nm", "result": 3.0, "unit": "nm"}, {"measurement": "increase in CSM from 1 to 2000 bar", "setting": "[2]; λex=310 nm", "result": 8.9, "unit": "nm"}, {"measurement": "ΔV for W6 (Trp) emission", "setting": "[3]", "result": "0.81 cm3 mol^−1 and ~1.6±0.4 cm3 mol^−1"}, {"measurement": "R (fit to Eq 1), change in CSM per nm of λex", "setting": "[4]; absolute value", "result": 0.96}, {"measurement": "A (REES magnitude, fit to Eq 2)", "setting": "[4]; relative to NEMO alone, native, denatured (6M guanidine), crowded (Sbi 20 mg/ml)", "result": "1 ± 0.1"}, {"measurement": "R (fit to Eq 1), relative", "setting": "[4]; relative to NEMO alone, native, denatured, crowded", "result": "1 ± 0.13"}, {"measurement": "R0", "setting": "[4]; native, denatured, crowded", "result": "363.2 ± 0.19", "unit": "nm"}, {"measurement": "R0", "setting": "[4]; native, denatured, crowded, listed as NEMO", "result": "363.2±0.19", "unit": "nm"}, {"measurement": "R0", "setting": "[4]; native, denatured, crowded, listed as native NEMO", "result": "363.2±0.19", "unit": "nm"}, {"measurement": "increase in CSM (red shift)", "setting": "[4]; λex 292-310 nm", "result": 17.7, "unit": "nm"}, {"measurement": "increase in ΔλEm^max", "setting": "[4]; λex 292-310 nm", "result": 15, "unit": "nm"}]}
